Assays:
[1] = target: the molecule itself; assay: single-molecule fluorescence intensity counting (TIRF microscopy); TMR-labelled Vasa adsorbed on poly-L-lysine-coated glass; number of molecules in a spot from the intensity of a single TMR; 30 mM HEPES pH 7.3, 150 mM potassium acetate, 5 mM magnesium acetate, 0.1% NP-40, 500 uM TCEP, oxygen scavengers; with 5 ug/ml yeast RNA further oligomerization
[2] = target: T1, Siwi-piRISC (FLAG-Siwi loaded with piRNA) (Bombyx mori, UniProt A8D8P8 1-899); assay: single-molecule two (or three)-colour colocalisation (TIRF microscopy); premix of 10 nM biotinylated ATTO647N target RNA, 625 nM TMR-Vasa and 380 nM Siwi fixed on the surface by avidin-biotin through the target RNA; exogenous piRNA-4; assay buffer with oxygen scavenger; no ATP; details: both partners purified
T1 construct: Siwi (Silkworm Piwi), PIWI protein of Bombyx mori; In the assay Siwi carried piRNA (exogenous piRNA-4) and was held on the glass through the biotinylated, ATTO647N-labelled target RNA; the only protein chain is Siwi; also called Silkworm Piwi; source: BmN4 cells, purified (anti-FLAG gel column)
T1 sequence (looked up): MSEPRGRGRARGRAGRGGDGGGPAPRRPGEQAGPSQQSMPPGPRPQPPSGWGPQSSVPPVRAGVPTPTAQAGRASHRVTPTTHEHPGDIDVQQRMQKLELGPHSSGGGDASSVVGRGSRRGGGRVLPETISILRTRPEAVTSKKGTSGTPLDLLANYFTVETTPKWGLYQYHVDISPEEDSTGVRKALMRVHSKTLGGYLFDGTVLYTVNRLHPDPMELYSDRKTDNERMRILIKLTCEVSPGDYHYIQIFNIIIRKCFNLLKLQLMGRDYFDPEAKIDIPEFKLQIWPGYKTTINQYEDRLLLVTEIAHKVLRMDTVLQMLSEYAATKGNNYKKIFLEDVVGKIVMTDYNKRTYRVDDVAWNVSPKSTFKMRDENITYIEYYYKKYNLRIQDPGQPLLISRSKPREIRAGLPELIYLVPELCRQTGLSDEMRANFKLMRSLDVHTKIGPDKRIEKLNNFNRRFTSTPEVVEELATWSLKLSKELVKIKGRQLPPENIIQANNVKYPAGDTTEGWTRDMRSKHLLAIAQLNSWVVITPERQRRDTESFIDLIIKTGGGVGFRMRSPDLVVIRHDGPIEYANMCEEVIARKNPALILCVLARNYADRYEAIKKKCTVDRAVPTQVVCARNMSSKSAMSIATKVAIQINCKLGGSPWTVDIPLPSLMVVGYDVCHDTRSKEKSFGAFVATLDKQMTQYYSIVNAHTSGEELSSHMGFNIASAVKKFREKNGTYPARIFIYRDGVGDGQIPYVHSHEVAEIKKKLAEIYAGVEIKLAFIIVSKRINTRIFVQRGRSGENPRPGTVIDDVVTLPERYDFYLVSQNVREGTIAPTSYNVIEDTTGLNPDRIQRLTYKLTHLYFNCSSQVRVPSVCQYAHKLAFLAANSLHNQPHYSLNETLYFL

binding result [2]: binds
B1: FLAG-Halo-Vasa (wild-type Bombyx mori Vasa) (enzyme, UniProt O01378 1-601, looked up)
chain: MDDDWDDSCEAVVVPPPPLQNHDSVDEGHSLSRGRGFPSFNEDDEKENGYGERRGRGGRGGGRGRGGRGGRGGSREQHSDYETNGDHDDRGRGERGRGRGRGGRGGGRGGGGGGGDRNDYEDNEIGENGETKKPVTYVPPEPTNDETEIFSSTISSGINFDKFDHIAVKVSGENPPRPIESFETANLRKYVLDNVLKAGYRKPTPIQKNAIPIIMSGRDLMGCAQTGSGKTAAFLVPIINMLLQDPKDLISENGCAQPQVIIVSPTRELTLQIFNEARKFSYGSVLKVAVAYGGTAVRHQGDNIARGCHILVATPGRLHDFVERNRVSFGSVRFVVLDEADRMLDMGFMPSIEKMMLHPTMVETTKRQTLMFSATFPEDIQHLAGRFLNNYLFVAVGIVGGASTDVEQIFIEVTKYEKRNSLKQLIEENDGKRILVFVETKRNADFIAAMLSEQQLLTSSIHGDRMQREREEALQNFKSGKHCILVATAVAARGLDIKNVDIVVNYDLPKSIDEYVHRIGRTGRVGNRGKAVSFYDSDQDLALVADLSKILRQADQSVPDFLKGGGTATFKGNKYGGSDVRNFNNANTAVVDQGQEPEEEW
modifications: TMR-labelled HaloTag ligand on the HaloTag; the immobilised copy in the aggregation measurement also labelled with Biotin-XX-NHS
notes: Vasa, ATP-dependent DEAD-box RNA helicase of Bombyx mori, wild type; Non-fluorescent Vasa was used only in RNA dissociation assays; also called WT-Vasa; TMR-Vasa; source: BmN4 cells, purified (anti-FLAG gel column); not shown: HaloTag, N-terminal, kept
stoichiometry N [1]: 2

From PMC8664846, “Heterogeneous dissociation process of truncated RNAs by oligomerized Vasa helicase” (Communications Biology, 2021)
